Data from the RNAGym collection of RNA variant scans (doi:10.1093/nar/gkz1192).

B1: CPEB3 Ribozyme (parent)
chain: UAACAGGGGGCCACAGCAGAAGCGUUCACGUCGCAGCCCCUGUCAGAUUCUGGUGAAUCUGCGAAUUCUGCUGUAUAUCUC

Variants of: B1
Assay: self-cleavage, relative activity (ratio to wild type); higher = more cleavage; in vitro, sequencing
Method in brief: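 Libraries of CPEB3 self-cleaving ribozyme mutants came from rounds of error-prone PCR and carried barcodes, which DNA sequencing matched to variants. In vitro transcription used T7 RNA polymerase at 37°C for 5 hours, with a further 15 min in DNase I before EDTA stopped the reaction; the ribozymes cleaved during both steps. The RNA was reverse transcribed with template switching and sequenced on Illumina. Relative activity is the cleaved/total read fraction of a variant divided by that of the unmutated ribozyme, averaged over three batches with at least 5 reads.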

Variant | self-cleavage
U41G A77U | 0.36
U41G A77G | 0.2
U41G U60A | 0.16
U41G U60C | 0.18
U41C U67G | 0.3
U41C U67C | 0.33
U41C U67A | 0.53
G42A U48C | 0.33
U41C U78A | 1.13
U41C U78C | 1.06
U41C U78G | 1.23
U41G U43C | 0.33
U41G U43A | 0.28
U41A U54C | 0.29
U41A U54A | 0.27
U41A U54G | 0.22
U41C U69G | 0.79
U41C U69A | 0.67
U41C U69C | 0.57
U41C U58G | 0.41
U41C U58C | 0.58
U41C U58A | 0.47
U41A A75U | 0.4
U41A A75G | 0.27

Variant | self-cleavage
U41A A75C | 0.31
U41A G42A | 0.37
U41A G42C | 0.21
U41A G42U | 0.27
G42A U66C | 0.38
U41A U51C | 0.31
U41A U51A | 0.36
U41A U51G | 0.42
G42C U60C | 0.24
U41A G55U | 0.2
U41A G55A | 0.19
U41A G55C | 0.34
U41A U66A | 0.27
U41A U66G | 0.18
U41A U66C | 0.23
G42A U69A | 0.08
U41C C59U | 0.89
U41C C59A | 0.27
G42A A77U | 0.39
U41C G63U | 1.13
U41C G63A | 0.89
U41C G63C | 1.06
U41A G46A | 0.3
U41A G46U | 0.29

Variant | self-cleavage
G42A G55U | 0.08
U41A G70U | 0.12
U41A A47G | 0.29
U41A A47C | 0.18
U41A A47U | 0.3
U41A G61U | 0.24
G42A A65C | 0.24
G42A A65G | 0.42
G42A A65U | 0.3
U41C A64U | 0.4
U41C A64G | 0.77
U41C A64C | 0.46
U41G A47G | 0.37
U41G U51A | 0.37
U41G U51G | 0.27
U41G U51C | 0.21
U41G A57C | 0.11
U41G A57G | 0.23
G42A C44G | 0.11
U41C U80G | 1.29
U41C U80A | 1.15
U41C U80C | 1.04
U41C C79U | 1.26
U41C C79A | 1.21

Variant | self-cleavage
U41G U80C | 0.29
U41G U80A | 0.26
U41G U66C | 0.2
U41A U74C | 0.4
U41A U74A | 0.29
C40U U78C | 0.56
C40U U78A | 0.75
G42A U80C | 0.36
G42A U80A | 0.79
C40U U74C | 1.08
C40U U74G | 1.04
G42C U74C | 0.3
U41G A64U | 0.14
U41G A64G | 0.26
U41A A56U | 0.29
U41A A56G | 0.24
U41C A75U | 1.18
U41C A75G | 1.09
U41C A75C | 1.15
U41A C68A | 0.17
U41A U76C | 0.27
U41A U76A | 0.16
U41A U76G | 0.22
U41C A77U | 1.17

Variant | self-cleavage
U41C A77C | 1.09
U41C A77G | 1.17
U41G U78A | 0.26
U41G U78C | 0.21
U41G U78G | 0.2
U41G C71G | 0.33
U41G C44A | 0.13
G42A U58C | 0.25
G42A U58A | 0.21
U41C G55U | 1.17
U41C G55A | 0.93
U41C U51A | 1.06
U41C U51G | 0.81
U41C U51C | 1.08
G42A U60C | 0.34
G42A U60A | 0.3
U41A U49A | 0.23
U41A U49C | 0.23
U41C G42A | 0.23
U41C G42C | 0.23
G42C U43C | 0.14
G42C U43A | 0.33
U41G U72C | 0.35
U41G U72G | 0.41

Variant | self-cleavage
U41G U72A | 0.14
U41C C62G | 0.15
U41C C62A | 0.19
U41C C62U | 0.17
U41C A45C | 0.53
U41C A45G | 0.92
U41C A45U | 0.68
U41A U43G | 0.4
U41A U43A | 0.24
U41A U43C | 0.27
U41C A56G | 0.94
U41C A56C | 0.64
U41C A56U | 0.75
U41C U54G | 0.88
U41C U54C | 1.03
U41C U54A | 1.11
U41C C68G | 0.39
U41C C68U | 1.09
U41A U58G | 0.23
U41A U58A | 0.22
U41A U58C | 0.23
G42A U78C | 0.21
G42A U43C | 0.29
G42A U43G | 0.32

Variant | self-cleavage
U41C G53C | 1.13
U41C G53A | 1.13
U41C C50A | 0.94
U41C C50G | 0.96
U41C C50U | 1.08
G42U A57G | 0.19
G42A A56G | 0.16
G42A A56U | 0.28
U41C G61C | 0.21
U41C G61A | 0.34
U41C G61U | 0.62
U41G G52C | 0.14
U41C G70U | 0.5
U41C G70A | 0.62
U41A U72G | 0.21
U41A U72A | 0.23
U41A U72C | 0.28
U41C U49A | 0.89
U41C U49C | 0.5
U41A G63C | 0.26
U41A G63A | 0.35
U41A G63U | 0.3
G42A U74C | 0.64
G42A U54C | 0.57

Variant | self-cleavage
G42A U54A | 0.45
U41G A45U | 0.17
U41G A45G | 0.25
U41G U67C | 0.17
U41G U67A | 0.2
G42A U51C | 0.29
U41C C81A | 1.19
U41C C81U | 1.19
G42A U76C | 0.41
G42A U76G | 0.26
U41C C44U | 0.53
U41C C44A | 0.39
U41A C62U | 0.16
U41A C62A | 0.34
G42A A75G | 0.28
U41A G73C | 0.17
U41A G73U | 0.42
U41A G73A | 0.45
G42C U49C | 0.1
U41G U58G | 0.16
U41G U58A | 0.33
U41G U58C | 0.18
U41A A77C | 0.15
U41A A77G | 0.31

Variant | self-cleavage
U41A A77U | 0.31
G42A G63U | 0.35
U41G U48C | 0.36
U41A A64G | 0.28
U41A A64C | 0.15
U41A A64U | 0.29
U41A C79G | 0.37
U41A C79U | 0.41
U41A C79A | 0.32
U41A C59A | 0.13
U41A C59U | 0.06
G42C U48A | 0.13
G42A A47G | 0.42
U41C U66C | 0.49
U41C U66A | 0.62
U41C U66G | 0.58
U41A U80G | 0.41
U41A U80A | 0.28
U41A U80C | 0.32
U41A C71G | 0.1
U41A C71U | 0.24
U41C G52C | 1.12
U41C G52A | 1.18
U41C G52U | 1.03

Variant | self-cleavage
G42A C59G | 0.23
U41C G46C | 0.42
U41C G46U | 0.34
U41C G73A | 1.23
U41C G73U | 1.28
U41C G73C | 1.25
U41G | 0.29
U41A | 0.3
U41C | 1.09
U41G U49C | 0.38
U41A U78C | 0.26
U41A U78A | 0.25
U41A U78G | 0.13
C40U U72A | 0.39
C40U U72G | 0.32
C40U U72C | 0.9
U41A U48A | 0.22
U41A U48G | 0.37
U41A U48C | 0.23
U41A C81U | 0.25
U41A C81G | 0.25
U41A C81A | 0.22
G42C | 0.51
G42A | 0.34

Variant | self-cleavage
G42U | 0.31
U41G U74A | 0.37
U41G U74C | 0.35
G42A A45G | 0.3
G42A A45C | 0.32
U41A G53C | 0.23
U41A G53A | 0.38
G42A U72C | 0.37
G42A U72A | 0.18
U41A U67C | 0.21
U41A U67G | 0.18
U41A U67A | 0.36
G42A U49A | 0.21
G42A U67A | 0.14
G42A U67C | 0.21
G42U A56U | 0.48
G42U A56G | 0.49
C40U U80C | 0.76
C40U U80A | 0.67
G42A G53C | 0.29
U41C A57C | 0.58
U41C A57G | 1
U41C A57U | 0.78
U41A A57G | 0.25

Variant | self-cleavage
U41A A57C | 0.4
U41A A57U | 0.13
U41A A45C | 0.18
U41A A45U | 0.2
U41A A45G | 0.24
U41G A56U | 0.25
U41G A56G | 0.22
U41A U60A | 0.25
U41A U60G | 0.23
U41A U60C | 0.26
U41G U76C | 0.27
U41G U76A | 0.14
U41C C71G | 0.4
U41C C71U | 0.76
U41C C71A | 0.33
C40U U76C | 0.92
U41C U72C | 1.11
U41C U72G | 0.92
U41C U72A | 0.79
U41C U74G | 1.21
U41C U74C | 1.23
U41C U74A | 1.22
U41G U69G | 0.22
U41G U69C | 0.19

Variant | self-cleavage
U41G U69A | 0.36
G42A G70C | 0.13
G42A G70A | 0.19
U41A G52A | 0.19
U41A G52C | 0.67
U41A G52U | 0.21
G42C U72C | 0.21
G42A A57U | 0.18
G42A A57G | 0.16
G42U A47G | 0.18
G42A C81U | 0.4
G42A C81G | 0.35
G42C A57G | 0.25
U41C U43A | 0.72
U41C U43C | 0.46
U41G A65G | 0.35
U41C U60C | 0.55
U41C U60A | 0.68
U41C U60G | 0.42
G42A C79A | 0.33
G42A C79U | 0.36
U41C U48G | 0.55
U41C U48A | 0.6
U41C U48C | 0.71

Variant | self-cleavage
U41C A47U | 0.61
U41C A47G | 1
U41C A47C | 0.46
U41A C44U | 0.23
U41A C44A | 0.15
U41A U69G | 0.33
U41A U69A | 0.14
U41A U69C | 0.24
G42A A64U | 0.14
G42A A64G | 0.21
U41G U54G | 0.23
U41G U54C | 0.38
U41G C81U | 0.33
U41C U76G | 1.05
U41C U76A | 1.17
U41C U76C | 1.05
U41A A65G | 0.25
U41A A65U | 0.17
U41G A75G | 0.18
U41C A65G | 0.53
U41C A65U | 0.48
U41C A65C | 0.4
